Substitutions are numbered along the chain they refer to.

B1: EP410 (ligand)
chain: APTSSSTKKTQLQLEHLLLDLQMILNGINNYKNPKLTVMLTFKFSMPKKATELKHLQCLEEELKPLEEVLNLAQSKNFHLTARDAVDNMRVIIQELKGSETTFMCEYADETATIVEFLNRWITFCQSIISTLT
notes: not shown: His and Flag tags
B2: EP411 (ligand)
chain: APTSSSTKKTQLQLEHLLLDLQMILNGINNYKNPKLTVMLTFKFSMPKKATELKHLQCLEEELKPLEEVLNLAQSKNFHLGVTDSISNAIVLARELKGSETTFMCEYADETATIVEFLNRWITFCQSIISTLT
notes: not shown: His and Flag tags
B3: EP242 (ligand)
chain: B1 chain with V38R, S45Y, V86I, D87S, M89I, I93V
notes: EP001 back-mutation clone; not shown: His and Flag tags
B4: EP247 (ligand)
chain: B1 chain with V38R, S45Y, T81R, V86I, M89I, I93V
notes: not shown: His and Flag tags
B5: EP263 (ligand)
chain: B1 chain with V38R, S45Y, V86I, M89I, I93V, Q94L
notes: not shown: His and Flag tags
B6: EP331 (ligand)
chain: B1 chain with K35G, V38E, S45Y, A82P, V86I, M89I, I93V
notes: not shown: His and Flag tags
B7: EP343 (ligand)
chain: B1 chain with V38D, A82P, V86I, M89I, I93V
notes: not shown: His and Flag tags
B8: EP336 (ligand)
chain: B1 chain with K35S, V38R, F42G, S45Y, A82P, V86I, M89I, Q94L
notes: not shown: His and Flag tags
B9: EP351 (ligand)
chain: B1 chain with V38R, F42A, S45Y, A82P, V86I, M89I, I93V
notes: not shown: His and Flag tags
B10: EP352 (ligand)
chain: B1 chain with V38R, F42A, S45Y, A82P, V86I, M89I, Q94L
notes: not shown: His and Flag tags
B11: EP332 (ligand)
chain: B1 chain with K35G, V38E, S45Y, A82P, V86I, M89I, Q94L
notes: not shown: His and Flag tags
B12: EP348 (ligand)
chain: B1 chain with A82P, V86I, M89I, Q94L
notes: not shown: His and Flag tags
B13: EP344 (ligand)
chain: B1 chain with V38D, A82P, V86I, M89I, Q94L
notes: not shown: His and Flag tags
B14: EP334 (ligand)
chain: B1 chain with K35S, V38R, F42G, S45Y, V86I, D87S, M89I, R90N
notes: not shown: His and Flag tags
B15: EP335 (ligand)
chain: B1 chain with K35S, V38R, F42G, S45Y, A82P, V86I, M89I, I93V
notes: not shown: His and Flag tags
B16: EP342 (ligand)
chain: B1 chain with V38D, V86I, D87S, M89I, R90N
notes: not shown: His and Flag tags
B17: EP330 (ligand)
chain: B1 chain with K35G, V38E, S45Y, V86I, D87S, M89I, R90N
notes: not shown: His and Flag tags

In the first assay the target is T1, human IL2Rβ (human, UniProt P14784 27-239).
T1 construct: also called IL2β; CD122
T1 sequence (looked up): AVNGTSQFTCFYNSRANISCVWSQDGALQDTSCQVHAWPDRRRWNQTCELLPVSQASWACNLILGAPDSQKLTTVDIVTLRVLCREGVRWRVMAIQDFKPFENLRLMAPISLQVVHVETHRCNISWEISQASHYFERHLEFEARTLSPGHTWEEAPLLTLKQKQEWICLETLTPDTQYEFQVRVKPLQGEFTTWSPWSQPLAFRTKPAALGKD
In words: SPR, IL2Rβ captured on Protein A chip. Here is the method:
Kinetic analysis of the receptor binding activities of IL2Rβ agonist with IL2Rα reduced activity mutations have been assessed by SPR technology with Biacore T200. The assay was run with Biacore T200 control software version 2.0. For each cycle, 1 ug/mL of human IL2Rβ was captured for 60 seconds at flow rate of 10 ul/min on flow cell 2 in 1×HBSP buffer on Protein A sensor chip. 100 nM of HIS and Flag tag purified each IL2 mutant was 2 fold serial diluted and injected onto both reference flow cell 1 and IL2Rβ captured flow cell 2 for 150 seconds at flow rate of 30 ul/mins followed by wash for 300 seconds. The flow cells were then regenerated with Glycine pH2 for 60 seconds at flow rate of 30 ul/mins. The assay was set up with 8 serial diluted concentration points in 96 well format. The kinetics data was analyzed with Biacore T200 evaluation software 3.0. The specific binding response unit was derived from subtraction of binding to reference flow cell 1 from target flow cell 2.
In general terms: Surface plasmon resonance follows binding to a sensor surface in real time, without labels.
By Kd is commonly meant the equilibrium constant for the complex coming apart. High values mean weaker binding, low ones tighter binding. By koff is commonly meant the rate constant with which the complex falls apart. A higher koff goes with fast dissociation. Usually kon stands for the rate constant with which the complex forms. The low end stands for slower complex formation, the high end for faster complex formation. As for B1, the Kd is 0.827 nM, the koff turned out to be 0.00594 s⁻¹ and the on-rate (kon) was determined as 7.19e+06 M⁻¹ s⁻¹.
Molecule B2 gave a Kd of 0.461 nM, a koff of 0.000839 s⁻¹ and a kon of 1.82e+06 M⁻¹ s⁻¹.

The next assay concerns the target T2, human IL2Rβ Fc fusion protein (human, UniProt P14784 27-239).
T2 construct: also called Recombinant Fc-tagged human IL2Rβ; not shown: Fc
T2 sequence (looked up): T1 sequence (looked up)
In words: ELISA, receptor-Fc coated, anti-Flag HRP. As to the method:
(§1) Briefly, 384 well plate was immobilized with human IL2Rα and IL2Rβ Fc fusion proteins at a final concentration of 2 ug/mL in 1×PBS in total volume of 25 uL per well. The plate was incubated overnight at 4 C and blocked with 80 uL of superblock per well for 1 hour. […] Each dilution was added to IL2Rα or IL2Rβ wells in parallel in duplicates. The IL2 mutant binding was detected by adding 25 uL of anti-Flag HRP diluted at 1:5000 in 1×PBST. In between each step, the plate was washed three times with 1×PBST using a plate washer. The plate was then developed with 25 uL of TMB substrate for five minutes and stopped by adding 25 ul of 2N sulfuric acid. The plate was read at OD450 nm Biotek plate reader and the EC50 was analyzed with Prism 8.1 software to generate EC50 values (FIG. 15A for IL2Rα, and FIG. 15B for IL2Rβ, summarized in Table 9).
A general note: An ELISA detects its analyte on a solid surface through an enzyme-linked reagent.
The EC50 is the concentration that produces a half-maximal response. High values mean a less potent agent, low ones a more potent agent. On to B3, for which the response was half-maximal at 5.7 nM (EC50). This counts as single-digit nanomolar.
In turn, B4 gave a concentration giving a half-maximal response (EC50) of 4.7 nM.
Same read-out and setting: under B5 stands 1.3 nM.

The target of the next assay is T3, human IL2Rα Fc fusion protein (human, UniProt P01589 22-213, limits assumed).
T3 construct: also called Recombinant Fc-tagged human IL2Rα; not shown: Fc
T3 sequence (looked up): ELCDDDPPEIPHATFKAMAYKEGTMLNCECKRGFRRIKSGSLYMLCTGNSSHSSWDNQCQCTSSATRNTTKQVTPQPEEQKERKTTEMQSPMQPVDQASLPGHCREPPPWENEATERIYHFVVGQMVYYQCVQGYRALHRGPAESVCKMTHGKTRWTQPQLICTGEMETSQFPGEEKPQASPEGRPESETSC
Description: ELISA, receptor-Fc coated, anti-Flag HRP. Here is the method: as §1
Regarding B3, the midpoint of the response, the EC50, lay at 8.7 nM.
Same read-out and setting: for B4 the value was 8.3 nM; for B5, 4.9 nM.

A further assay has as its target T1, human IL2Rβ. In words: SPR, IL2Rβ captured on Protein A chip. This is another data set of the same source. Here is the method: The assay was run with Biacore T200 control software version 2.0. For each cycle, 1 ug/mL of human IL2Rβ was captured for 60 seconds at flow rate of 10 uL/min on flow cell 2 in 1×HBSP buffer on Protein A sensor chip. 100 nM of HIS and Flag tag purified each IL2 mutant was 2-fold serial diluted and injected onto both reference flow cell 1 and IL2Rβ captured flow cell 2 for 150 seconds at flow rate of 30 uL/min followed by washing for 300 seconds. The flow cells were then regenerated with Glycine pH2 for 60 seconds at a flow rate of 30 uL/min. The assay was set up with 8 serial diluted concentration points in 96-well format. The kinetics data was analyzed with Biacore T200 evaluation software 3.0. The specific binding response unit was derived from subtraction of binding to reference flow cell 1 from target flow cell 2 (FIGS. 16A-16F, Table 10).
Consider B3, for which the equilibrium dissociation constant (Kd) came out at 7.16 nM, the off-rate (koff) is 0.0241 s⁻¹ and the on-rate (kon) was 3.36e+06 M⁻¹ s⁻¹.
Take B4: the dissociation constant (Kd) is 7.23 nM, the koff amounted to 0.0304 s⁻¹ and the kon worked out at 4.2e+06 M⁻¹ s⁻¹.
B5 had a dissociation constant Kd of 2.79 nM, a koff of 0.0191 s⁻¹ and a kon of 6.84e+06 M⁻¹ s⁻¹.

Another assay deals with T2, human IL2Rβ Fc fusion protein. Description: ELISA, Fc-tagged receptor coated, anti-HisTag-HRP. As to the method:
(§2) Recombinant Fc-tagged human IL2Rα and IL2Rβ were added in 25 uL of 1×PBS to wells of 384-well plate and incubated overnight at 4° C. to coat the plates. Plates were washed three times with 0.05% Tween20/1×PBS. Plates were blocked with 100 uL of SuperBlock for 1 hr at RT and then washed 3 times with 0.05% Tween20/1×PBS. IL2 mutants were diluted in 0.05% Tween 20/1×PBS from 1000 nM to 0 nM and added to plates for 2 hrs at room temperature. Plates were then washed 6 times with 0.05% Tween20/1×PBS. Anti-HisTag-HRP was diluted 1:5000 in 0.05% Tween20/1×PBS and added to plates for 1 hr at RT. Plates were then washed 6 times with 0.05% Tween 20/1×PBS, and TMB was added to develop blue color. Reactions were stopped with 2N […] and light absorbance at 450 nm was read on a BioTek plate reader.
With B6, the EC50 came to 39.3 nM.
Molecule B7 registered a 50% effective concentration (EC50) of 19.7 nM.
Same read-out and setting: for B8 the value was 133 nM; for B9, 21.2 nM; for B10, 33.8 nM.
In turn, B11 had a concentration for a half-maximal effect (EC50) of 44 nM.
Still for that read-out and setting: under B12 stands 124 nM.
On to B13, for which a half-maximal response (EC50) required 50.7 nM.
On to B14, for which the response was half-maximal at 28.6 nM (EC50).
Consider B15, for which the midpoint of the response, the EC50, lay at 59.1 nM. This EC50 is about 2.1-fold higher than that of the molecule before.
The molecule B16 yielded an EC50 of 58.9 nM. The EC50 values of the last two molecules are within 1.5-fold of each other.

Another assay has as its target T3, human IL2Rα Fc fusion protein. In words: ELISA, single point, Fc-tagged human IL2Rα coated, anti-His-HRP; concentration not printed (Example 14). As to the method:
as §2
Take B6: the binding result is “no binding (tested: not printed)”.
As to B7, the binding result was “no binding (tested: not printed)”.
Turning to B8, the binding result is on record as “no binding (tested: not printed)”.
As for B9, the binding result is given as “no binding (tested: not printed)”.
Turning to B10, the binding result is “no binding (tested: not printed)”.
Turning to B11, the binding result is reported as “no binding (tested: not printed)”.
As for B17, the binding result was “no binding (tested: not printed)”.
Same read-out and setting: for B12 the value was “no binding (tested: not printed)”; for B13, “no binding (tested: not printed)”; for B14, “no binding (tested: not printed)”.
Regarding B15, the binding result is “no binding (tested: not printed)”.
As for B16, the binding result is “no binding (tested: not printed)”.

Source of the values: US20230002466A1 (ELPIS BIOPHARMACEUTICALS, published 2023).
